{"source": "paper PMC10127692", "test_in_all_cases": "two-hybrid", "key": {"[1]": {"molecular_target": "BD-SUD2_(core) (SUD2-N+M, K412 to S675 of SARS-CoV-2 Nsp3, fused to the DNA binding domain) (SARS-CoV-2)"}, "[2]": {"molecular_target": "SUD2-N (K412 to E548 of SARS-CoV-2 Nsp3), two-hybrid bait (SARS-CoV-2)"}, "[3]": {"molecular_target": "SUD2-M (I549 to S675 of SARS-CoV-2 Nsp3), two-hybrid bait (SARS-CoV-2)"}}, "data": [{"substance": "AD-Nsp5 (Nsp5 of SARS-CoV-2 fused to the activation domain) (from UniProt P0DTD1 3264-3569)", "values": [{"measurement": "fold LacZ reporter induction against full-length SUD2", "setting": "[1]", "value": 2.1, "unit": "fold"}]}, {"substance": "AD-Nsp5 (Nsp5 of SARS-CoV-2 fused to the activation domain) (from UniProt P0DTD1 3264-3569) (enzyme)", "values": [{"measurement": "LacZ reporter activity compared with SUD2-N+M", "setting": "[2]", "value": 47, "unit": "%"}, {"measurement": "LacZ reporter activity compared with SUD2-N+M", "setting": "[3]", "value": 86, "unit": "%"}]}]}
